Assay [1] concerns differentiated HL-60 cells. The experiment in a line: Chemotaxis assay, differentiated HL-60 cells responding to C5a, C5a plus DBP or ZAS. Format: cell-based, Human. To be noted: differentiated HL-60 cells; for enhancement of C5a-mediated chemotaxis (net cell movement): 100 pM C5a (FIG. 1: 25-200 pM) plus 50 nM of indicated DBP, 60 min at 37° C. The gist of the method: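 Bt2cAMP-differentiated (250 μM, 48 h) HL-60 cells pretreated 30 min at room temperature with buffer, 1 μM peptide 1 (130-152) or 1 μM peptide 2 (150-172). Migration toward 100 pM C5a, C5a plus 50 nM full-length DBP, or 1% ZAS measured in 48-well chamber through 5 μm cellulose nitrate filters, 60 min, 37 °C; read-out is leading-front distance (μm), mean±SEM of 3 experiments.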

Assay [2] deals with differentiated HL-60 cells. The experiment in a line: Ligand-induced calcium mobilization (Fluo-3 AM) in differentiated HL-60 cells. Format: cell-based, Human. The settings on record: untreated cells, DBP and C5a added simultaneously.
A further assay relates to U937-C5aR cells. The experiment in a line: C5a-induced intracellular calcium mobilization in U937-C5aR cells. The settings on record: FIG. 11A; cells pretreated 30 min at 22° C. with 50 nM DBP. Format: cell-based, human. The protocol:
FIG. 11A and FIG. 11B show the effect of DBP on C5a-induced intracellular calcium mobilization in U937-C5aR cells. U937-C5aR cells (10^7 cells/ml) were resuspended in HBSS-1% BSA containing 2 μM Fluo-3 AM and incubated at 37° C. for 40 minutes. Cells incubated without the dye were used as a control to measure autofluorescence (Fmin). Following the dye uptake, cells were washed twice then suspended at 5×10^6 cells/ml in HBSS containing 1% BSA. For the pretreatment experiments, cells were incubated for 30 min at 22° C. with 50 nM DBP or 0.5 μM DBP peptide 1 (p1). For each measurement, 400 μl of cell suspension was added to a cuvette and stimulated with the indicated concentration of C5a (FIG. 11A) or 0.1 nM C5a (FIG. 11B). Fluorescence was then measured immediately using a Perkin-Elmer LS-5 fluorometer at 505 nm excitation, 526 nm emission for Fluo-3 AM. Fmax was measured by treating labeled cells with 60 μM digitonin. Intracellular free calcium concentrations were calculated using the following formula: (Ca^2+)=Kd (F−Fmin)/(Fmax−F), where Kd=325 nM for Fluo-3 according to manufacturer (Molecular Probes). Data are presented as mean±SEM (n=4-6) of the increase in intracellular calcium concentration.
U937-C5aR cells (10^7 cells/ml) were resuspended in HBSS-1% BSA containing 2 μM Fluo-3 AM and incubated at 37° C. for 40 minutes. Cells incubated without the dye were used as a control to measure autofluorescence (Fmin). Following the dye uptake, cells were washed twice then suspended at 5×10^6 cells/ml in HBSS containing 1% BSA. Cells were incubated for 30 min at 22° C. with either 50 nM DBP or 0.5 μM DBP peptide. For each measurement, 400 μl of cell suspension was added to a cuvette and stimulated with 0.1 nM purified C5a. Fluorescence was then measured immediately using a Perkin-Elmer LS-5 fluorometer at 505 nm excitation, 526 nm emission for Fluo-3 AM. Fmax was measured by treating labeled cells with 60 μM digitonin. Intracellular free calcium concentrations were calculated using the following formula: (Ca2+)=Kd (F−Fmin)/(Fmax−F), where Kd=325 nM for Fluo-3 according to manufacturer (Molecular Probes)

B1: DBP: Purified human DBP obtained from Biodesign International (protein)
chain: LERGRDYEKNKVCKEFSHLGKEDFTSLSLVLYSRKFPSGTFEQVSQLVKEVVSLTEACCAEGADPDCYDTRTSALSAKSCESNSPFPVHPGTAECCTKEGLERKLCMAALKHQPQEFPTYVEPTNDEICEAFRKDPKEYANQFMWEYSTNYGQAPLSLLVSYTKSYLSMVGSCCTSASPTVCFLKERLQLKHLSLLTTLSNRVCSQYAAYGEKKSRLSNLIKLAQKVPTADLEDVLPLAEDITNILSKCCESASEDCMAKELPEHTVKLCDNLSTKNSKFEDCCQEKTAMDVFVCTYFMPAAQLPELPDVELPTNKDVCDPGNTKVMDKYTFELSRRTHLPEVFLSKVLEPTLKSLGECCDVEDSTTCFNAKGPLLKKELSSFIDKGQELCADYSENTFTEYKKKLAERLKAKLPDATPTELAKLVNKHSDFASNCCSINSPPLYCDSEIDAELKNIL
For the molecule B1, the “enhancement of C5a-mediated chemotaxis (net cell movement)” value is reported as “significantly enhanced” in assay [1] (listed as natural DBP) and “significantly enhanced movement to C5a” in assay [1] (listed as purified natural DBP). Moreover, in assay [1] (no C5a, chemotaxis and Ca2+ flux), the “response of cells treated with DBP alone” value was “no response”. Further, the “calcium influx in response to C5a” value in assay [2] is “did not show augmented calcium influx”. In addition, the “effect on C5a-induced increase in intracellular calcium” value in the assay on U937-C5aR cells is “significantly augments”.

Values taken from US7547676B2, “Antagonist peptides to the C5A chemotactic function of vitamin D binding protein” (The Research Foundation of State University of New York, priority 2004, dated 2009).
